# T1: nucleoside-disphosphate kinase B (NME2) (human (endogenous in HEK293)), P22392
# T1 chain: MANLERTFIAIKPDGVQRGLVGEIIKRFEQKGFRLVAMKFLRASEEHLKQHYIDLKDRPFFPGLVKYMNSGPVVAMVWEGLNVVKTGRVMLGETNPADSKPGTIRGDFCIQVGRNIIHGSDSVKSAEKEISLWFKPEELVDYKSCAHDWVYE
# Molecular target: T1, nucleoside-disphosphate kinase B (NME2) …
# Assay: cross-linking; in vivo: intact 293 HBTH-CSN2 cells, 1 mM TSTO in PBS pH 7.4, 1 h, room temperature; SEC-HpHt separation of peptides, LC-MSn
# Settings: remark: other sources report otherwise
binder,measurement,value
"nucleoside-disphosphate kinase B (NME2), P22392 1-152 (natural protein) MANLERTFIAIKPDGVQRGLVGEIIKRFEQKGFRLVAMKFLRASEEHLKQHYIDLKDRPFFPGLVKYMNSGPVVAMVWEGLNVVKTGRVMLGETNPADSKPGTIRGDFCIQVGRNIIHGSDSVKSAEKEISLWFKPEELVDYKSCAHDWVYE",stoichiometry N,3
